In publication PMC10553838 (PLOS Pathogens, 2023):

Molecular target: F-actin (filamentous rabbit skeletal muscle α-actin) (rabbit, UniProt P68135 1-377)
Test: cell-based or functional assay

Binder | F-actin-stimulated guanylate cyclase (cGMP synthesis) activity, 3 μM F-actin, against wild-type Pa-ExoY
Pa-ExoY (20-378) K347A (enzyme) LLRPADMQARALQDLFDAQGVGVPVEHALRMQAVARQTNTVFGIRPVERIVTTLIEEGFPTKGFSVKGKSSNWGPQAGFICVDQHLSKREDRDTAEIRKLNLAVAKGMDGGAYTQTDLRISRQRLAELVRNFGLVADGVGPVRLLTAQGPSGKRYEFEARQEADGLYRISRLGRSEAVQVLASPACGLAMTADYDLFLVAPSIEAHGSGGLDARRNTAVRYTPLGAKDPLSEDGFYGREDMARGNITPRTRQLVDALNDCLGRGEHREMFHHSDDAGNPGSHMGDNFPATFYLPRAMEHRVGEESVRFDEVCVVADRKSFSLLVECIAGNGYHFTAHPDWNVPLRPGFQEALDFFQRKV | ~15 fold decrease
Pa-ExoY (20-378) H352A (enzyme) LLRPADMQARALQDLFDAQGVGVPVEHALRMQAVARQTNTVFGIRPVERIVTTLIEEGFPTKGFSVKGKSSNWGPQAGFICVDQHLSKREDRDTAEIRKLNLAVAKGMDGGAYTQTDLRISRQRLAELVRNFGLVADGVGPVRLLTAQGPSGKRYEFEARQEADGLYRISRLGRSEAVQVLASPACGLAMTADYDLFLVAPSIEAHGSGGLDARRNTAVRYTPLGAKDPLSEDGFYGREDMARGNITPRTRQLVDALNDCLGRGEHREMFHHSDDAGNPGSHMGDNFPATFYLPRAMEHRVGEESVRFDEVCVVADRKSFSLLVECIKGNGYAFTAHPDWNVPLRPGFQEALDFFQRKV | ~8 fold decrease
Pa-ExoY (20-378) 3 Mut (F367A-L371A-F374A) (enzyme) LLRPADMQARALQDLFDAQGVGVPVEHALRMQAVARQTNTVFGIRPVERIVTTLIEEGFPTKGFSVKGKSSNWGPQAGFICVDQHLSKREDRDTAEIRKLNLAVAKGMDGGAYTQTDLRISRQRLAELVRNFGLVADGVGPVRLLTAQGPSGKRYEFEARQEADGLYRISRLGRSEAVQVLASPACGLAMTADYDLFLVAPSIEAHGSGGLDARRNTAVRYTPLGAKDPLSEDGFYGREDMARGNITPRTRQLVDALNDCLGRGEHREMFHHSDDAGNPGSHMGDNFPATFYLPRAMEHRVGEESVRFDEVCVVADRKSFSLLVECIKGNGYHFTAHPDWNVPLRPGAQEAADFAQRKV | ~12000 fold reduction
